From patent US20240343793A1 (TILLOTTS PHARMA, published 2024) come the findings set out here.

One experiment concerns the target T1, CD64 (UniProt P12314 16-288, limits assumed).
T1 construct: His-tagged (captured on an anti-His chip); also called Fcγ receptor CD64
Kind of experiment: SPR (Biacore), His-tagged FcγR captured on anti-His chip, antibody as analyte.

The target in another experiment is T2, CD32a(H) (UniProt P12318 36-218).
T2 construct: His-tagged; also called Fcγ receptor CD32a(H)
T2 sequence (looked up): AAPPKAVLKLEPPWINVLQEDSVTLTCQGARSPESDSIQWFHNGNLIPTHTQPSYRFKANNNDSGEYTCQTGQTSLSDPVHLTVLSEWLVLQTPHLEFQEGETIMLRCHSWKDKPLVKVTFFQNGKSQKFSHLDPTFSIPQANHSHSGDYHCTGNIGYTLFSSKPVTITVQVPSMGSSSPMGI
The description is as above.

The next experiment addresses T3, CD32b (UniProt P31994 46-217).
T3 construct: His-tagged; also called Fcγ receptor CD32b
T3 sequence (looked up): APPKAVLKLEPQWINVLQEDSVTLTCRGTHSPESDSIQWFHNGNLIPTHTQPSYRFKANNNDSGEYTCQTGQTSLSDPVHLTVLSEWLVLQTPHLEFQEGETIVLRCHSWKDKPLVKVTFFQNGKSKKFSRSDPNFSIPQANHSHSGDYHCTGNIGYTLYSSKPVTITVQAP
The experiment is described as above.

Experiment [1] deals with T4, CD16a(V) (UniProt P08637 17-208).
T4 construct: His-tagged; also called Fcγ receptor CD16a(V)
The experiment is described as above.
Description: (§1) Affinity to FcγRs was measured by Biacore. A CM5 chip was prepared using standard amine immobilisation Biacore procedures. Upon insertion of a CM5 chip the system was primed and then normalised with BIA-normalizing solution (Biacore Preventative Maintenance Kit 2). The chip was added to the system with Phosphate Buffered Saline Tween-20 (PBS-T) running buffer; prior to immobilisation the chip surface was primed with three injections of 50 mM NaOH. FcγRs were immobilised on the chip surface using a His-tag capture system. The anti-His tag chip was prepared according to the Biacore kit instructions, with ˜12000 RU's of the antibody deposited on all 4 flow cells. To remove non-covalently bound material from all the chip flow cells, three 30 second 10 mM glycine pH 1.5 washes were performed. The Fcγ receptors were diluted in PBS-T to a range of 0.5-2 μg/mL, with 2.5-5.0 μL injected onto the chip generating capture levels between 60 and 200 RU's. Antibodies were diluted into PBS-T prior to analysis. Single cycle kinetics were used to estimate the steady state affinity. For each single cycle analysis cycle a titration of 5 antibody concentrations were injected over the FcγR ligand and then the dissociation of the complex was measured. The surface was regenerated using the recommended solution, 10 mM glycine pH 1.5 for the anti-His capture surface. A double referencing method was employed in which data from the ligand bound capture surface (fc 2 and 4) were subtracted from the references surfaces where no ligand was captured (fc 1 and 3 respectively). Blank injections of buffer were run for every antibody titration cycle and then subtracted from analyte injection cycles, to correct for small changes in the ligand capture surface. All analysis was performed at 25° C. and the sample rack was incubated at 10° C. during experimental runs. Each experiment was run at least three times.

Experiment [2] has as its target T5, human TNFα (human, UniProt P01375 77-233).
T5 construct: also called recombinant TNFα
As to the kind of experiment: SPR (Biacore), antibody captured on Protein A, TNFα as analyte, single cycle kinetics, 25 C.
Description: Affinity to TNFα was measured by Biacore. A CM5 chip was prepared using standard amine immobilisation Biacore procedures. Upon insertion of a CM5 chip the system was primed and then normalised with BIA-normalising solution (Biacore Preventative Maintenance Kit 2). The chip was added to the system with PBS-T running buffer; prior to immobilisation the chip surface was primed with three injections of 50 mM NaOH. Protein A was immobilised on the chip surface. For this, the protein was diluted to 5 μg/mL into 10 mM acetate buffer at pH 4.5 and injected so to generate a bound response of ˜1000 RU's in all 4 flow cells. To remove non-covalently bound material from all the chip flow cells, three 15 second 50 mM NaOH washes were performed. On the Protein A chip, antibody was captured in flow cells 2 and 4, with flow cells 1 and 3 used for reference subtraction. The trial antibodies were diluted in PBS-T to 10 nM and 2.5-7.5 uL injected to obtain 120 RU of captured antibody. […] For each single cycle analysis cycle a titration of 5 analyte concentrations were injected over the ligand and then the dissociation of the complex was measured. The surface was regenerated using glycine pH 1.7. A double referencing method was employed in which data from the ligand bound capture surface (fc 2 and 4) were subtracted from the references surfaces where no ligand was captured (fc 1 and 3 respectively). Blank injections of buffer were run every 3-4 cycles and then subtracted from analyte injection cycles, to correct for small changes in the ligand capture surface. Repeat injections of analyte at the start and end of each analytical run were used to check for sample degradation, or changes in the instrument performance. All analysis was performed at 25° C. and the sample rack was incubated at 10° C. during experimental runs. Each experiment was run at least three times. A 1-to-1 binding model was used to fit the resulting kinetic data.

The target of experiment [3] is T6, monomeric His-tagged human FcRn (human, UniProt P55899 24-297; P61769 21-119).
T6 construct: also called hFcRn
As to the kind of experiment: SPR (Biacore 3000), antibody amine-coupled, monomeric His-tagged hFcRn injected, pH 6.0; pH 6.0.
Description: (§2) SPR was performed using a Biacore 3000 instrument with CM5 sensor chips coupled with anti-TNFα IgG1 antibodies (˜500 resonance units (RU)) using amine-coupling chemistry as described by the manufacturer. The coupling was performed by injecting 2.0 ug/mL of each protein in 10 mM sodium acetate, pH 4.5, using the amine-coupling kit (GE Healthcare). […] All SPR experiments were conducted at 25° C. with a flow rate of 40 ul/min. Binding data were zero-adjusted, and reference cell value subtracted. The Langmuir 1:1 ligand binding model provided by the BIAevaluation software (version 4.1) was used to determine the binding kinetics.

Experiment [4] concerns the target T5, human TNFα. Kind of experiment: cell-based or functional assay.
In experiment [5] the target is T6, monomeric His-tagged human FcRn. As to the kind of experiment: SPR, pH 6.0; KD against that of IFX; pH 6.0; fold change from IFX.
Description: as §2
For experiment [6] the target is unchanged. Kind of experiment: SPR, pH 6.0; KD against that of Ab-wt; pH 6.0; fold change from wt.
Description: as §2
Another experiment has as its target T7, CD32a(R) (UniProt P12318 36-218).
T7 construct: His-tagged; also called Fcγ receptor CD32a(R)
T7 sequence (looked up): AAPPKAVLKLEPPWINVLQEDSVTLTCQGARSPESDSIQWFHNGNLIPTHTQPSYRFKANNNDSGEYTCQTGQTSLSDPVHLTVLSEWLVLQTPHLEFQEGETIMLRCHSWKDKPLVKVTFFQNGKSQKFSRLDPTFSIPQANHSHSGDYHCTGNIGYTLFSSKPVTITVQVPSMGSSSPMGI
Kind of experiment: SPR (Biacore), His-tagged FcγR captured on anti-His chip, antibody as analyte.

A further experiment concerns the target T8, CD16a(F) (UniProt P08637 17-208).
T8 construct: His-tagged
The experiment is described as above.

Another experiment deals with T9, CD16b(NA2) (UniProt O75015 17-200, limits assumed).
T9 construct: His-tagged
Described as above.

For the next experiment, the target named is human C1q (human, UniProt P02745 23-245; P02746 28-253; P02747 29-245). Kind of experiment: ELISA: antibody titrated onto plate-coated human TNFα, then human C1q at 0.5 µg/mL, detected with rabbit anti-human C1q and HRP anti-rabbit IgG, absorbance 620 nm.
Experiment [7] deals with T4, CD16a(V). As to the kind of experiment: SPR (Biacore), His-tagged FcγR captured; reference not named in the sentence (Ab-wt by Table 5).
Description: Affinity to FcγRs was measured by Biacore. A CM5 chip was prepared using standard amine immobilisation Biacore procedures. Upon insertion of a CM5 chip the system was primed and then normalised with BIA-normalizing solution (Biacore Preventative Maintenance Kit 2). The chip was added to the system with Phosphate Buffered Saline Tween-20 (PBS-T) running buffer; prior to immobilisation the chip surface was primed with three injections of 50 mM NaOH. FcγRs were immobilised on the chip surface using a His-tag capture system. The anti-His tag chip was prepared according to the Biacore kit instructions, with ˜12000 RU's of the antibody deposited on all 4 flow cells. To remove non-covalently bound material from all the chip flow cells, three 30 second 10 mM glycine pH 1.5 washes were performed. The Fcγ receptors were diluted in PBS-T to a range of 0.5-2 μg/mL, with 2.5-5.0 μL injected onto the chip generating capture levels between 60 and 200 RU's. Antibodies were diluted into PBS-T prior to analysis. Single cycle kinetics were used to estimate the steady state affinity. For each single cycle analysis cycle a titration of 5 antibody concentrations were injected over the FcγR ligand and then the dissociation of the complex was measured. The surface was regenerated using the recommended solution, 10 mM glycine pH 1.5 for the anti-His capture surface. […]

T1 sequence (P12314 16-288 limits assumed): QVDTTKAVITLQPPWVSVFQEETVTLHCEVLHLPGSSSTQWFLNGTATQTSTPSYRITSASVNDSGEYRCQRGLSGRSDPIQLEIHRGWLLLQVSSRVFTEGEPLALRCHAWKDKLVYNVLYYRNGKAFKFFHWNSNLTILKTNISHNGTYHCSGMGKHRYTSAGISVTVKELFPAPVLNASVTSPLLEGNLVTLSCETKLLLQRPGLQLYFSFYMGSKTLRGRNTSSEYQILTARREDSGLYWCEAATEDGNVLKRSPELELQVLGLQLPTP
Chain of human C1q (P02745 23-245, chain 1 of 3): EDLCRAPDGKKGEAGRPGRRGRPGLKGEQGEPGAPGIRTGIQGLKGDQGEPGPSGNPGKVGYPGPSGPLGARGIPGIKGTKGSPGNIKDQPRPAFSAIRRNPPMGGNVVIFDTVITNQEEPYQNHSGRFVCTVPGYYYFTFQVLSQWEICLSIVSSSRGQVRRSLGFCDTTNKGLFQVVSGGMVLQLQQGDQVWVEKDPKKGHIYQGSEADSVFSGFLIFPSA
Chain of human C1q (P02746 28-253, chain 2 of 3): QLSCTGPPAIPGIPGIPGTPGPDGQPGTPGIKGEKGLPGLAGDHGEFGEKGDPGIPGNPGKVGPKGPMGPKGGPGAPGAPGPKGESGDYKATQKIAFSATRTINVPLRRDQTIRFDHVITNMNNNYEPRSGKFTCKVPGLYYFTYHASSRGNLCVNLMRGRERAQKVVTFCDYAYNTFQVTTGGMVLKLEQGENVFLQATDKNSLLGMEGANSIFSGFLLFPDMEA
Chain of human C1q (P02747 29-245, chain 3 of 3): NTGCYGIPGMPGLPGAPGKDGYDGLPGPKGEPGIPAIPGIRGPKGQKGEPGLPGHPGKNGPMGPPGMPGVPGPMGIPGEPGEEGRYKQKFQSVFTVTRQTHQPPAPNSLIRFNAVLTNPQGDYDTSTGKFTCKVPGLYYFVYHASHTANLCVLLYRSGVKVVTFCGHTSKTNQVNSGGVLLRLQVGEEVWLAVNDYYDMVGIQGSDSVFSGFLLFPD
T4 sequence (P08637 17-208 F176V limits assumed): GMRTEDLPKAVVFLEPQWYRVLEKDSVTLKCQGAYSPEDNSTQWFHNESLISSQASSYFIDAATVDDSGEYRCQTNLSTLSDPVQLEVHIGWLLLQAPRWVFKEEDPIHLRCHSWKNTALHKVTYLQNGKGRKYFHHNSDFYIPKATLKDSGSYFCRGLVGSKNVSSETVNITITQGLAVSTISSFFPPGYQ
T6 sequence (P55899 24-297 limits assumed, chain 1 of 2): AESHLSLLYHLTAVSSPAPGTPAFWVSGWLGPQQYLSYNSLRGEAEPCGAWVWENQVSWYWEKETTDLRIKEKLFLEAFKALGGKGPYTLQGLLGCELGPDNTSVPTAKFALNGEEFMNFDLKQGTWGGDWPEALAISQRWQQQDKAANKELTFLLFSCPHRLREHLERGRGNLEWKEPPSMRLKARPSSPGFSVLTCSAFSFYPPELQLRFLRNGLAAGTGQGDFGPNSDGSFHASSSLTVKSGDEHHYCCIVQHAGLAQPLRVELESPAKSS
T6 sequence (P61769 21-119 limits assumed, chain 2 of 2): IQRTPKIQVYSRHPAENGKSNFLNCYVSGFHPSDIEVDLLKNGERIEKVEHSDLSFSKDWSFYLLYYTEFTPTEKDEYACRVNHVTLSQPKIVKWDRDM
T5 sequence (P01375 77-233 limits assumed): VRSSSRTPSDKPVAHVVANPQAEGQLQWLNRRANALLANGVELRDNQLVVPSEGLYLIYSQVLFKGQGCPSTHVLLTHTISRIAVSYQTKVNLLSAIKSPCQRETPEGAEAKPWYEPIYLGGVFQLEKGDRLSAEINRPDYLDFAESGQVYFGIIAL
T8 sequence (P08637 17-208 limits assumed): as the sequence (P08637 17-208 F176V limits assumed) above, with V160F counted along it
T9 sequence (O75015 17-200 N65S limits assumed): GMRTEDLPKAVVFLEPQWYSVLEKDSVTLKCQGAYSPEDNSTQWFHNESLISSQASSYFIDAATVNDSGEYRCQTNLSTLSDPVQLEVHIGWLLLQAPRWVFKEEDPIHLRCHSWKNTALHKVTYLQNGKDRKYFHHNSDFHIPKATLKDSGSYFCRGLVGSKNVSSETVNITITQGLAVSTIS
Description for CD16a(F): as §1
Description for CD16b(NA2): as §1
Description for CD32a(H): as §1
Description for CD32a(R): as §1
Description for CD32b: as §1
Description for CD64: as §1
Description for human C1q: ELISA was performed using 96-well MaxiSorp plates where the wells were coated with human TNFα diluted to 1 μg/mL in PBS. After incubation O/N at 4° C., the plates were blocked with PBS containing 4% skimmed milk for 1 h and washed four times with PBS containing 0.05% Tween-20 (PBS-T). Then, titrated amounts of the anti-TNFα IgG antibodies were diluted in PBS-T, added and incubated for 1 h at RT. After washing using PBS-T, human C1q (0.5 μg/mL) was diluted in 0.1 M Veronal buffer (0.25 mM CaCl₂ and 0.8 mM MgCl₂ pH 7.2), added to the wells and incubated for 1 h. Subsequently, the wells were washed as above before rabbit anti-human C1q diluted 1:5000 in PBS-T was added to the wells and incubated for 1 h. After washing, an HRP-conjugated anti-rabbit IgG from donkey diluted 1:5000 in PBS-T was added. Subsequently, the wells were washed and 100 μL 3,3′,5,5′-Tetramethylbenzidine substrate was added to each well. The absorbance was measured at 620 nm using a Sunrise spectrophotometer.

B1: Ab-wt (antibody, human IgG1, kappa)
heavy: not shown
light: DIQMTQSPSSLSASVGDRVTIKCQASQSIFSGLAWYQQKPGKAPKLLIYGASKLASGVPSRFSGSGSGTEFTLTISGLQPADFATYYCQSYYYSSSSSDGSYAFGGGTKLTVLGRTVAAPSVFIFPPSDEQLKSGTASVVCLLNNFYPREAKVQWKVDNALQSGNSQESVTEQDSKDSTYSLSSTLTLSKADYEKHKVYACEVTHQGLSSPVTKSFNRGEC
notes: Human IgG1 anti-TNFα antibody with wild-type Fc; also called parent antibody; wild-type antibody
B1: the Kd was determined as 2.92 nM with CD64; 670 nM with CD32a(H); 3140 nM with CD32b; 184 nM in the experiment with CD16a(V) [1]; 0.00413 nM in the experiment with human TNFα [2]; 1000 nM in experiment [3]. Further, the koff with human TNFα [2] stood at 3.45e-05 s⁻¹. Moreover, the kon with human TNFα [2] came out at 8.37e+06 M⁻¹ s⁻¹.

B2: Ab-REW (antibody, human IgG1, kappa)
heavy: EVQLVESGGGLVQPGGSLRLSCKASGIDFNNYGIGWVRQAPGKGLEWITYIYPGFAITNFANSVKGRFTISSDNSKNTVYLQMNSLRAEDTAVYYCARDPVYATSSGYFDLWGQGTLVTVSSASTKGPSVFPLAPSSKSTSGGTAALGCLVKDYFPEPVTVSWNSGALTSGVHTFPAVLQSSGLYSLSSVVTVPSSSLGTQTYICNVNHKPSNTKVDKKVEPKSCDKTHTCPPCPAPELLGGPSVFLFPPKPKDTLMISRTPEVTCVVVDVSHEDPEVKFNWYVDGVEVHNAKTKPREEQYNSTYRVVSVLTVLHRDWLNGKEYKCKVSNKALPAPIEKTISKAKGQPREPQVYTLPPSREEMTKNQVSLTCLVKGFYPSDIAVEWESNGQPENNYKTTPPVLDSDGSFFLYSKLTVDKSRWQQGNVFSCSVEHEALHWHYTQKSLSLSPGK
light: DIQMTQSPSSLSASVGDRVTIKCQASQSIFSGLAWYQQKPGKAPKLLIYGASKLASGVPSRFSGSGSGTEFTLTISGLQPADFATYYCQSYYYSSSSSDGSYAFGGGTKLTVLGRTVAAPSVFIFPPSDEQLKSGTASVVCLLNNFYPREAKVQWKVDNALQSGNSQESVTEQDSKDSTYSLSSTLTLSKADYEKHKVYACEVTHQGLSSPVTKSFNRGEC
notes: IgG1; also called REW containing variant; Q311R/M428E/N434W variant of Ab-wt
Turning to B2, in the experiment with human TNFα [4], the “IC50 (read off the curve)” value was around 0.007 µg/mL. The “Fold change from IFX” value in experiment [5] turned out to be 75.8 fold. Further, the “Fold change from wt” value in experiment [6] turned out to be 178 fold. Besides, the Kd came to 2.8 nM with CD64; 780 nM in the experiment with CD32a(H); 1600 nM with CD32a(R); 1210 nM with CD32b; 280 nM with CD16a(V) [1]; 2410 nM with CD16a(F). In addition, the figures for the Kd (in the experiment with CD16b(NA2); with human TNFα [2]; in experiment [3]) were 1650 nM, 0.0033 nM and 5.61 nM, respectively. The molecule also displayed a koff with human TNFα [2] of 2.04e-05 s⁻¹. In the experiment with human TNFα [2], this molecule gave a kon of 6.22e+06 M⁻¹ s⁻¹. In addition, the “EC50 (read off the curve)” value in the experiment with human C1q is around 0.4 µg/mL.

B3: Ab-REW-2FF (antibody, human IgG1, kappa)
heavy: EVQLVESGGGLVQPGGSLRLSCKASGIDFNNYGIGWVRQAPGKGLEWITYIYPGFAITNFANSVKGRFTISSDNSKNTVYLQMNSLRAEDTAVYYCARDPVYATSSGYFDLWGQGTLVTVSSASTKGPSVFPLAPSSKSTSGGTAALGCLVKDYFPEPVTVSWNSGALTSGVHTFPAVLQSSGLYSLSSVVTVPSSSLGTQTYICNVNHKPSNTKVDKKVEPKSCDKTHTCPPCPAPELLGGPSVFLFPPKPKDTLMISRTPEVTCVVVDVSHEDPEVKFNWYVDGVEVHNAKTKPREEQYNSTYRVVSVLTVLHRDWLNGKEYKCKVSNKALPAPIEKTISKAKGQPREPQVYTLPPSREEMTKNQVSLTCLVKGFYPSDIAVEWESNGQPENNYKTTPPVLDSDGSFFLYSKLTVDKSRWQQGNVFSCSVEHEALHWHYTQKSLSLSPGK
light: DIQMTQSPSSLSASVGDRVTIKCQASQSIFSGLAWYQQKPGKAPKLLIYGASKLASGVPSRFSGSGSGTEFTLTISGLQPADFATYYCQSYYYSSSSSDGSYAFGGGTKLTVLGRTVAAPSVFIFPPSDEQLKSGTASVVCLLNNFYPREAKVQWKVDNALQSGNSQESVTEQDSKDSTYSLSSTLTLSKADYEKHKVYACEVTHQGLSSPVTKSFNRGEC
modifications: N-glycans at N297 (EU numbering) with greatly reduced fucose (13% fucosylated), made with 2-deoxy-2-fluoro-fucose (2FF) in the culture medium
notes: IgG1; also called non-fucosylated variant of Ab-REW
Take B3: the “IC50 (read off the curve)” value with human TNFα [4] was around 0.007 µg/mL. For the same molecule, in experiment [5], the “Fold change from IFX” value stood at 68.1 fold. Further, the “Fold change from wt” value in [6] was found to be 160 fold. In addition, the Kd with CD64 amounted to 2.93 nM; with CD32a(H), 1870 nM; in the experiment with CD32a(R), 1450 nM; with CD32b it was 1130 nM; with CD16a(V) [1], 33.5 nM; with CD16a(F) it was 150 nM. In addition, the dissociation constant Kd with CD16b(NA2) worked out at 400 nM; in [3], 6.24 nM. The “fold increase in affinity” value with CD16a(V) [7] is 5.5 fold. In the experiment with human TNFα [2], this molecule gave an association rate constant (kon) of 5.8e+06 M⁻¹ s⁻¹. Moreover, in the experiment with human C1q, the “EC50 (read off the curve)” value is around 0.6 µg/mL.

B4: infliximab (antibody)
chain 1: not shown
chain 2: DILLTQSPAILSVSPGERVSFSCRASQFVGSSIHWYQQRTNGSPRLLIKYASESMSGIPSRFSGSGSGTDFTLSINTVESEDIADYYCQQSHSWPFTFGSGTNLEVKRTVAAPSVFIFPPSDEQLKSGTASVVCLLNNFYPREAKVQWKVDNALQSGNSQESVTEQDSKDSTYSLSSTLTLSKADYEKHKVYACEVTHQGLSSPVTKSFNRGEC
As for B4, the “EC50 (read off the curve)” value with human C1q was around 0.5 µg/mL.
